Experimental data reported in PMC11621127.
Read-outs that look alike come from different tables or passages of the source.

Legend:
[1] = target: JRCSF SOSIP (chimeric SOSIP Env trimer: gp120 from JRCSF.JB, gp41 from BG505 with MD39 substitutions) (HIV-1 strain JRCSF.JB | HIV-1 strain BG505); test: mass photometry; Fab-SOSIP complexes formed at room temperature in TBS overnight, 4 uM trimer, 1.05 molar excess of Fab to SOSIP protomer, not purified by SEC; diluted to 8 nM trimer and a further 10-fold (6535.3) or 4-fold (JRCSF) on the instrument; SOSIP alone as control
[2] = target: 6535.3 SOSIP (chimeric SOSIP Env trimer: gp120 from 6535.3, gp41 from BG505 with MD39 substitutions) (HIV-1 strain 6535.3 | HIV-1 strain BG505); test: as above
[3] = target: 6535.3 SOSIP (chimeric SOSIP Env trimer: gp120 from 6535.3, gp41 from BG505 with MD39 substitutions) (HIV-1 strain 6535.3 | HIV-1 strain BG505); test: cryo-EM structure; SOSIP complexed with Fab at room temperature overnight, about 1.3:1 molar excess Fab:SOSIP protomer; SEC (Superose 6 Increase) in TBS; ~1.1 mg/mL (JRCSF/Ab1456) or ~1.9 mg/mL (6535.3/Ab1271); no sCD4 or CD4 mimetic
[4] = target: JRCSF SOSIP (chimeric SOSIP Env trimer: gp120 from JRCSF.JB, gp41 from BG505 with MD39 substitutions) (HIV-1 strain JRCSF.JB | HIV-1 strain BG505); test: as above
[5] = target: JRCSF SOSIP (chimeric SOSIP Env trimer: gp120 from JRCSF.JB, gp41 from BG505 with MD39 substitutions) (HIV-1 strain JRCSF.JB | HIV-1 strain BG505); test: as above; remark: listed apart in the source
[6] = target: JRCSF SOSIP (chimeric SOSIP Env trimer: gp120 from JRCSF.JB, gp41 from BG505 with MD39 substitutions) (HIV-1 strain JRCSF.JB | HIV-1 strain BG505); test: as above; remark: listed apart in the source

## JRCSF SOSIP (chimeric SOSIP Env trimer: gp120 from JRCSF.JB, gp41 from BG505 with MD39 substitutions) (complex)
[1]
  stoichiometry N: 3

## 6535.3 SOSIP (chimeric SOSIP Env trimer: gp120 from 6535.3, gp41 from BG505 with MD39 substitutions) (complex)
[2]
  stoichiometry N: 3

B1: Ab1271 Fab (Fab, V domains shown)
VH: QVQLVESGPGLVKPSETLSLTCAVSGDSISSTWWNWIRQPPGKGLEWIGRISGDGGNTDYSPSLKSRVTISTDTSKNQLSLRLTSVAAADTAVYFCAAPDCSGPDCSPGFDYWGPGVLVTVSS
VL: QPVLTQPPSVSGAPGQRVTISCTGSSSDIGRFYVQWYQQLPGTAPKLLIYENTKRPSGISDRFSGSQSGPSASLTITGLQSEDEADYYCQSYDSSMSAHVLFGGGTRLTVL
[3]
  stoichiometry N (Fab per trimer): 1
[2]
  stoichiometry N (Fab per trimer): 1

B2: Ab1456 Fab (Fab, V domains shown)
VH: QVQLVESGAEVKRPGDSLKISCKTSGDVFTSTWITWVRQMPGKDLEWMASIYLDDSDTQYNPSFQGHVTISADKSINTIYLQLSSLKVSDTATYYCAKWGVDCSDSGCSSAFDSWGQGVLVTVSS
VL: SYELTQPPSVSGAPGQRVTISCTGGTSNIGNYYVQWYQQLPGTAPKLLIYENNKRPSGISDRFSGSQSGTSGSLTITTGLQSEDEADYFCQSYDDSLSAHVFGSGTKVTIL
[4]
  stoichiometry N (Fab per trimer): 1
[5]
  stoichiometry N (Fab per trimer): 3
[6]
  stoichiometry N (Fab per trimer): 2
